In patent US20260167721A1 (ABLEXIS, published 2026):

Legend:
[1] = biological target: T1, recombinant CD3 proteins (UniProt P07766 23-126); test: Octet BLI, recombinant CD3; Full R^2 0.9897
T1 construct: elsewhere it uses human CD3 E/D and E/G heterodimers

[2] = biological target: T1, recombinant CD3 proteins; test: Octet BLI, recombinant CD3; Full R^2 0.9829

T1 sequence (P07766 23-126): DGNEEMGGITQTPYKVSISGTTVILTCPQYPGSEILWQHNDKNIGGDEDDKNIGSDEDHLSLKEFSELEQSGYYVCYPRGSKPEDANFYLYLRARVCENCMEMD

| Kd [1] [nM] | koff [1] [s⁻¹] | kon [1] [M⁻¹ s⁻¹] | Kd [2] [nM] | koff [2] [s⁻¹] | kon [2] [M⁻¹ s⁻¹] | Binder |
| --- | --- | --- | --- | --- | --- | --- |
| 24.6 | 0.00671 | 273000 |  |  |  | CD3 × CD33-BspAb84 (bispecific antibody) chain 1: EVQVAESGGGLVKPGGSLRLSCAASGFTFSRYSMNWVRQAPGKCLEWVSSISSSGSYTYYADSVKGRFTISRDNAKNSLYLQMNSLRAEDTAVYYCVRERGKGAGMDVWGQGTTVTVSSGGGGSGGGGSGGGGSGGGGSNFMLTQPHSVSESPGKTVTISCTRSSGSIASNYVQWYQQRPGSSPTTVIYEDNQRPSGVPDRFSGSIDSSSNSASLTISGLKTEDEADYYCQSYDSSNRVFGCGTKLTVLDKTHTCPPCPAPEFEGGPSVFLFPPKPKDTLMISRTPEVTCVVVDVSHEDPEVKFNWYVDGVEVHNAKTKPREEQYNSTYRVVSVLTVLHQDWLNGKEYKCKVSNKALPASIEKTISKAKGQPREPQVYTLPPCREEMTKNQVSLWCLVKGFYPSDIAVEWESNGQPENNYKTTPPVLDSDGSFFLYSKLTVDKSRWQQGNVFSCSVMHEALHNHYTQKSLSLSPGK chain 2: EVQLVQSGAEVKKPGSSVKVSCKASGYTITDSNIHWVRQAPGQSLEWIGYIYPYNGGTDYNQKFKNRATLTVDNPTNTAYMELSSLRSEDTAFYYCVNGNPWLAYWGQGTLVTVSSASTKGPSVFPLAPSSKSTSGGTAALGCLVKDYFPEPVTVSWNSGALTSGVHTFPAVLQSSGLYSLSSVVTVPSSSLGTQTYICNVNHKPSNTKVDKRVEPKSCDKTHTCPPCPAPEFEGGPSVFLFPPKPKDTLMISRTPEVTCVVVDVSHEDPEVKFNWYVDGVEVHNAKTKPREEQYNSTYRVVSVLTVLHQDWLNGKEYKCKVSNKALPASIEKTISKAKGQPREPQVCTLPPSREEMTKNQVSLSCAVKGFYPSDIAVEWESNGQPENNYKTTPPVLDSDGSFFLVSKLTVDKSRWQQGNVFSCSVMHEALHNRFTQKSLSLSPGK chain 3: DIQLTQSPSTLSASVGDRVTITCRASESLDNYGIRFLTWFQQKPGKAPKLLMYAASNQGSGVPSRFSGSGSGTEFTLTISSLQPDDFATYYCQQTKEVPWSFGQGTKVEVKRTVAAPSVFIFPPSDEQLKSGTASVVCLLNNFYPREAKVQWKVDNALQSGNSQESVTEQDSKDSTYSLSSTLTLSKADYEKHKVYACEVTHQGLSSPVTKSFNRGEC |
|  |  |  | 60.8 | 0.0149 | 246000 | CD3 × CD33-BspAb85 (bispecific antibody) chain 1: EVQLVESGGGLVKPGGSLRLSCAASGFTFSSYSMNWVRQAPGKCLEWVSSISRSSGYIFYADSVKGRFTISRDNAKNSLYLQMNSLRAEDTAVYYCVRERVGAGFDYWGQGTLVTVSSGGGGSGGGGSGGGGSGGGGSNFMLTQPHSVSESPGKTVAISCTRSSGSIASNYVQWYQQRPGSSPTAVIYEDNQRPSGVPDRFSGSIDSSSNSAFLTISGLKTEDEADYYCQSYDSSNRVFGCGTKLTVLDKTHTCPPCPAPEFEGGPSVFLFPPKPKDTLMISRTPEVTCVVVDVSHEDPEVKFNWYVDGVEVHNAKTKPREEQYNSTYRVVSVLTVLHQDWLNGKEYKCKVSNKALPASIEKTISKAKGQPREPQVYTLPPCREEMTKNQVSLWCLVKGFYPSDIAVEWESNGQPENNYKTTPPVLDSDGSFFLYSKLTVDKSRWQQGNVFSCSVMHEALHNHYTQKSLSLSPGK chain 2: EVQLVQSGAEVKKPGSSVKVSCKASGYTITDSNIHWVRQAPGQSLEWIGYIYPYNGGTDYNQKFKNRATLTVDNPTNTAYMELSSLRSEDTAFYYCVNGNPWLAYWGQGTLVTVSSASTKGPSVFPLAPSSKSTSGGTAALGCLVKDYFPEPVTVSWNSGALTSGVHTFPAVLQSSGLYSLSSVVTVPSSSLGTQTYICNVNHKPSNTKVDKRVEPKSCDKTHTCPPCPAPEFEGGPSVFLFPPKPKDTLMISRTPEVTCVVVDVSHEDPEVKFNWYVDGVEVHNAKTKPREEQYNSTYRVVSVLTVLHQDWLNGKEYKCKVSNKALPASIEKTISKAKGQPREPQVCTLPPSREEMTKNQVSLSCAVKGFYPSDIAVEWESNGQPENNYKTTPPVLDSDGSFFLVSKLTVDKSRWQQGNVFSCSVMHEALHNRFTQKSLSLSPGK chain 3: DIQLTQSPSTLSASVGDRVTITCRASESLDNYGIRFLTWFQQKPGKAPKLLMYAASNQGSGVPSRFSGSGSGTEFTLTISSLQPDDFATYYCQQTKEVPWSFGQGTKVEVKRTVAAPSVFIFPPSDEQLKSGTASVVCLLNNFYPREAKVQWKVDNALQSGNSQESVTEQDSKDSTYSLSSTLTLSKADYEKHKVYACEVTHQGLSSPVTKSFNRGEC |
